US9327008B2, “Cell-permeant peptide-based inhibitor of kinases” (Purdue Research Foundation, priority 2008, dated 2016)

How the values were obtained:
Type in all cases: biochemical
MLCK = molecular target: T1, MLCK (Homo sapiens, UniProt Q9H1R3); assay: Millipore radiometric kinase activity assay, MLCK (h); details: for MLCK Kinase Activity: peptide inhibitor 300 μM, SD of 2 samples
T1 construct: purchased Millipore (radiometric assay service)
Experimental: (§1) A commercial radiometric assay service (Millipore, Billerica, Mass.) was used to test the specificity and potency of peptides containing a coupled transduction domain and therapeutic domain, hereinafter “complete peptides”). In these assays, if the kinase is not inhibited by an inhibitor peptide, a positively charged substrate is phosphorylated with a radiolabeled phosphate group from an ATP.
(§2) In a final reaction volume of 25 μL, MLCK (h) (5-10 mU) is incubated with 8 mM MOPS pH 7.0, 0.2 mM EDTA, 0.5 mM CaCl2, 16 μg/mL calmodulin, 250 μM […] [SEQ ID NO: 52], 10 mM MgAcetate and [γ-^33P-ATP] (specific activity approx. 500 cpm/pmol, concentration as required). The reaction is initiated by the addition of the MgATP mix. After incubation for 40 minutes at room temperature, the reaction is stopped by the addition of 5 μL of a 3% phosphoric acid solution. 10 μL of the reaction is then spotted onto a P30 filtermat and washed three times for 5 minutes in 75 mM phosphoric acid and once in methanol prior to drying and scintillation counting.
(§3) IC50 values for inhibitor peptides were determined using Millipore's IC50Profiler Express service. The IC50 value was estimated from a 10-point curve of one-half log dilutions. For peptides tested for specificity, the concentration of the peptides that inhibited approximately 95% of MK2 activity was chosen to profile against a battery of kinases related to MK2, cell viability, or human disease from MilliporeKinaseProfiler service. In both assays, compounds were supplied in dimethylsulfoxide (DMSO). Every kinase activity measurement was conducted in duplicate.
(§4) Therapeutic inhibitor peptides were assayed for activity against human kinases related to MK2, cell viability, or human disease. The assays were performed using concentrations of therapeutic inhibitor peptides that yielded 2% to 8% of normal MK2 activity. Error is reported as the standard deviation between 2 samples, and “c” is rat AMPK whereas all other kinases used are human kinases.
(§5) Additional therapeutic inhibitor peptide variants were assayed for activity against several human kinases representative of several families of kinases. These kinases included: MK2; MK3; CaMKI (calcium/calmodulin-dependent protein kinase); PRAK (p38 regulated/activated protein kinase, also known as mitogen-activated protein kinase activated protein kinase 5 (MAPKAPK5)); SAPK2a (p38α); IRAK4 (IL-1 receptor (IL-1R)-associated kinase); MLCK (myosin light chain kinase); PKBβ (protein kinase B); PCKδ (protein kinase C); and ROCK-I (Rho-associated serine/threonine kinase).

PRAK = molecular target: T2, PRAK (Homo sapiens, UniProt Q8IW41); assay: Millipore radiometric kinase activity assay, PRAK (h); details: SD of 2 samples
T2 construct: purchased Millipore (assay service)
T2 sequence (Q8IW41 1-473): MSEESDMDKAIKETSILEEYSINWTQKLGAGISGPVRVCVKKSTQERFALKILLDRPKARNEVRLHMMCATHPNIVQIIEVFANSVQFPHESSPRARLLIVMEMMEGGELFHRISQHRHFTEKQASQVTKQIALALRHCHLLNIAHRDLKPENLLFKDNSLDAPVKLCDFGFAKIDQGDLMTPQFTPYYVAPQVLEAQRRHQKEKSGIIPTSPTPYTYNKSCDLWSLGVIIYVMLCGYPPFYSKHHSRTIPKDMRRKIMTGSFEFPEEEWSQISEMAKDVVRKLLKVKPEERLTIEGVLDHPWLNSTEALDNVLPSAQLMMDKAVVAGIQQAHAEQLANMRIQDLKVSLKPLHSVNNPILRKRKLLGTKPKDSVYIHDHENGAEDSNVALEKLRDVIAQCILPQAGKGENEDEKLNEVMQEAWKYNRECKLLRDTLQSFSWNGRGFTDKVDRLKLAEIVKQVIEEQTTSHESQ
Experimental: as §1
In a final reaction volume of 25 μL, PRAK (h) (5-10 mU) is incubated with 50 mM Naβ-glycerophosphate pH 7.5, 0.1 mM EGTA, 30 μM […] [SEQ ID NO: 65], 10 mM MgAcetate and [γ-^33P-ATP] (specific activity approx. 500 cpm/pmol, concentration as required). The reaction is initiated by the addition of the MgATP mix. After incubation for 40 minutes at room temperature, the reaction is stopped by the addition of 5 μL of a 3% phosphoric acid solution. 10 μL of the reaction is then spotted onto a P30 filtermat and washed three times for 5 minutes in 50 mM phosphoric acid and once in methanol prior to drying and scintillation counting.
as §3, §5

ROCK-I = molecular target: T3, ROCK-I (Homo sapiens, UniProt Q13464); assay: Millipore radiometric kinase activity assay, ROCK-I (h); details: for ROCK-1 Kinase Activity: peptide inhibitor 300 μM, SD of 2 samples
T3 construct: purchased Millipore (radiometric assay service)
T3 sequence (Q13464 whole entry): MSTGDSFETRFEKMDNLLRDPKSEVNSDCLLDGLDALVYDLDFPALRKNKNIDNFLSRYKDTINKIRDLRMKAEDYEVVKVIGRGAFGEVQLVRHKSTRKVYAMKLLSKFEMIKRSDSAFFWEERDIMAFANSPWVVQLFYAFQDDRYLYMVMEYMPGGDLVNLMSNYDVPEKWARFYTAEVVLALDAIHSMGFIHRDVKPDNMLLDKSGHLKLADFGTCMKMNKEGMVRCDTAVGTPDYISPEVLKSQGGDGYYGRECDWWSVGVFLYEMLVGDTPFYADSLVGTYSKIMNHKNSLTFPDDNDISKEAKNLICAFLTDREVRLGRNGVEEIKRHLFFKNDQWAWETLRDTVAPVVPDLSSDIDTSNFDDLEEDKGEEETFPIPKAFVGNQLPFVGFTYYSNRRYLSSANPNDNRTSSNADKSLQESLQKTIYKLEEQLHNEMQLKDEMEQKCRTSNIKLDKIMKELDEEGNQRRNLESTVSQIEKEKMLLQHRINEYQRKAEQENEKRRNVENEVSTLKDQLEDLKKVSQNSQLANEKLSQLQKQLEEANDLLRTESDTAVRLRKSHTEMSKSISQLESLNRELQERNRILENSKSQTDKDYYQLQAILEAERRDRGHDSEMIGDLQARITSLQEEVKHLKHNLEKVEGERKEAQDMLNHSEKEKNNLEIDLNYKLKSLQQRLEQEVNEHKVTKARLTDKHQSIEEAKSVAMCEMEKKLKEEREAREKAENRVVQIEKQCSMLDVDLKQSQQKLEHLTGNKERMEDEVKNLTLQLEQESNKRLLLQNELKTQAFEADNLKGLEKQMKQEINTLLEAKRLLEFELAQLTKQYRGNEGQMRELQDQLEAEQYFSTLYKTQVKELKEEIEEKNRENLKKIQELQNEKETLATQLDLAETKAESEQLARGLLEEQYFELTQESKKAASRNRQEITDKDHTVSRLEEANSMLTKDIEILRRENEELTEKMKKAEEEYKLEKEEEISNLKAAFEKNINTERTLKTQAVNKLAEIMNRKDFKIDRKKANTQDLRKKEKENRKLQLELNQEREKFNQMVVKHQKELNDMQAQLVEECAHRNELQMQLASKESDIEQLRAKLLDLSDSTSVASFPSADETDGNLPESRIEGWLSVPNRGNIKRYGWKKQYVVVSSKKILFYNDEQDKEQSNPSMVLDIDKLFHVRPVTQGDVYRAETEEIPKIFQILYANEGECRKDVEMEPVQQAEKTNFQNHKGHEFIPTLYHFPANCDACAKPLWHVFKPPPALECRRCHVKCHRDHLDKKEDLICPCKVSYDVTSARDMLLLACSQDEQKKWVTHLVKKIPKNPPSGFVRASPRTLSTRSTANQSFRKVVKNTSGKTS
Experimental: as §1
as §2, with “ROCK-I (b)” for “MLCK (h)”, “30” for “0.5 mM CaCl2, 16 μg/mL calmodulin, 250”, “63],” for “52],”
as §3, §4, §5

IRAK4 = molecular target: T4, IRAK4 (Homo sapiens, UniProt Q9NWZ3); assay: Millipore radiometric kinase activity assay, IRAK4 (h)
T4 construct: purchased Millipore (assay service)
T4 sequence (Q9NWZ3 1-460): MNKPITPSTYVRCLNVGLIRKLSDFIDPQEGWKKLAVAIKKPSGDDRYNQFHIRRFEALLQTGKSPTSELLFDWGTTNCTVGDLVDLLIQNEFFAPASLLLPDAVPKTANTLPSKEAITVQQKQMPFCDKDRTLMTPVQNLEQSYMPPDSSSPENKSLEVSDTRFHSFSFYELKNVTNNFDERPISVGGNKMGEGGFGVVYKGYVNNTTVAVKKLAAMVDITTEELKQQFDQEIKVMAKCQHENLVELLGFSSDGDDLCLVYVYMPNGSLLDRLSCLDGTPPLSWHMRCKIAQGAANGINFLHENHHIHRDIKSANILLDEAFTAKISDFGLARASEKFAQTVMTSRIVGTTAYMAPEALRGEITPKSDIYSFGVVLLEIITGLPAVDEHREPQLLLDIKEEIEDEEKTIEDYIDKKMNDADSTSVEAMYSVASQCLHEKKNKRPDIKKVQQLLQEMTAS
Experimental: as §1
In a final reaction volume of 25 μL, IRAK4 (h) (5-10 mU) is incubated with 8 mM MOPS pH 7.0, 0.2 mM EDTA, 0.33 mg/mL myelin basic protein, 10 mM MgAcetate and [γ-^33P-ATP] (specific activity approx. 500 cpm/pmol, concentration as required). The reaction is initiated by the addition of the MgATP mix. After incubation for 40 minutes at room temperature, the reaction is stopped by the addition of 5 μL of a 3% phosphoric acid solution. 10 μl of the reaction is then spotted onto a P30 filtermat and washed three times for 5 minutes in 75 mM phosphoric acid and once in methanol prior to drying and scintillation counting.
as §3, §4, §5

[1] = peptide 30 μM, listed as WLRRIKAWLRRI-
[2] = peptide 100 μM, listed as KAFAKLAARLYRLARQLGVAA

YARAAARQARAKALARQLGVAA
MLCK Kinase Activity (MLCK): 9(0) %
PRAK Kinase Activity (PRAK; peptide inhibitor 300 μM): 86(2) %
ROCK-1 Kinase Activity (ROCK-I): 27(4) %

WLRRIKAWLRRIKALNRQLGVAA
MLCK Kinase Activity (%) (+SD %) (MLCK; peptide 30 μM): 4(1) %
MLCK Kinase Activity (%) (+SD %) (MLCK; [1]): 4 (1) %
MLCK Kinase Activity (%) (+SD %) (MLCK; peptide 100 μM): 1 (1) %
PRAK Kinase Activity (PRAK; peptide inhibitor 30 μM): 67(9) %
ROCK-1 Kinase Activity (%) (+SD %) (ROCK-I; peptide 30 μM): 0(1) %
ROCK-1 Kinase Activity (%) (+SD %) (ROCK-I; [1]): 0 (1) %
ROCK-1 Kinase Activity (%) (+SD %) (ROCK-I; peptide 100 μM): 25 (2) %
IRAK4 Kinase Activity (%) (+SD %) (IRAK4; peptide 30 μM): 12(1) %
IRAK4 Kinase Activity (%) (+SD %) (IRAK4; [1]): 12 (1) %
IRAK4 Kinase Activity (%) (+SD %) (IRAK4; peptide 100 μM): 13 (4) %

FAKLAARLYRKALARQLGVAA
MLCK Kinase Activity (%) (+SD %) (MLCK; peptide 100 μM): 1(1) %
PRAK Kinase Activity (PRAK; peptide inhibitor 100 μM): 131(4) %
ROCK-1 Kinase Activity (%) (+SD %) (ROCK-I; peptide 100 μM): 25(2) %
IRAK4 Kinase Activity (%) (+SD %) (IRAK4; peptide 100 μM): 13(4) %

YARAAARQARAKALNRQLGVAA
MLCK Kinase Activity (MLCK): 66(9) %
PRAK Kinase Activity (PRAK; peptide inhibitor 300 μM): 81(3) %
ROCK-1 Kinase Activity (ROCK-I): 95(7) %
IRAK4 Kinase Activity (IRAK4; peptide inhibitor 300 μM, SD of 2 samples): 68(3) %

KAFAKLAARLYRKALARQLGVAA
MLCK Kinase Activity (%) (+SD %) (MLCK; peptide 100 μM): 2 (0) %
MLCK Kinase Activity (%) (+SD %) (MLCK; [2]): 2(0) %
PRAK Kinase Activity (PRAK; peptide inhibitor 100 μM): 148(4) %
ROCK-1 Kinase Activity (%) (+SD %) (ROCK-I; peptide 100 μM): 29 (0) %
ROCK-1 Kinase Activity (%) (+SD %) (ROCK-I; [2]): 29(0) %
IRAK4 Kinase Activity (%) (+SD %) (IRAK4; peptide 100 μM): 16 (2) %
IRAK4 Kinase Activity (%) (+SD %) (IRAK4; [2]): 16(2) %
